Measured values as given in paper PMC4114019.

Target: T1, Purified FLAG-IKKε protein, Q14164
T1 chain: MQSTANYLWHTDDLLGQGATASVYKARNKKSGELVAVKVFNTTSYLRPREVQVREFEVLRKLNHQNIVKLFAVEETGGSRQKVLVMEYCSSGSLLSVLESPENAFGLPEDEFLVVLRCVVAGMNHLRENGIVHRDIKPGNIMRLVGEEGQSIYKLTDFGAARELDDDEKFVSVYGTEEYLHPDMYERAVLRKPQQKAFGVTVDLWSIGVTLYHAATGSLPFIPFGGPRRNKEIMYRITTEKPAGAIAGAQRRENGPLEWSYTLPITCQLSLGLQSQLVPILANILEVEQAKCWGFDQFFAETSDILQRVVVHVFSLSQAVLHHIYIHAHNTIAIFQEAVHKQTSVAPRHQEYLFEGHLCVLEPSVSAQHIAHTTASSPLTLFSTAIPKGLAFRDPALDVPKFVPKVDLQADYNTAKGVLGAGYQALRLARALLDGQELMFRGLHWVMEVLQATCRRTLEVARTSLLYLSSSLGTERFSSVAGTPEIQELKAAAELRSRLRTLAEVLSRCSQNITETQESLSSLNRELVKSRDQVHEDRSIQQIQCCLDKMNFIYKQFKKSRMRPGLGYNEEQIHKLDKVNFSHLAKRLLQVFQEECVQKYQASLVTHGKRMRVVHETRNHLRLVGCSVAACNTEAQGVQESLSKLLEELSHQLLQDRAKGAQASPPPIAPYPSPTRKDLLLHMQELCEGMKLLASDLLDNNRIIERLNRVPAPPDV
Assay: native gel or EMSA
Conditions: remark: other sources report otherwise

B1: Purified FLAG-IKKε protein, Q14164 1-716 (enzyme)
chain: T1 chain
stoichiometry N: 2
